According to patent CN115746133A (BOAOXIN BIOTECHNOLOGY NANJING CO LTD, dated 2023):

What was measured:
[1] = biological target: T1, 重组人CD47-his蛋白 (ACRO biosystems, cat#CD7-H5227) (human, UniProt Q08722 19-139, biotin-labelled in the ELISA assays (site not stated)); assay: SPR (Biacore T200), antibody captured by goat anti-mouse IgG on a CM5 chip, CD47-his as analyte
T1 construct: Bought protein; also called 人CD47蛋白; 人CD47-生物素; not shown: his tag

[2] = biological target: T2, 人CD47 (表面过表达人CD47的293F细胞) (human, UniProt Q08722 19-323); assay: flow cytometry on 293F cells overexpressing human CD47
T2 construct: whole, on cells; also called 表面过表达人CD47的稳定细胞系293F
T2 sequence (Q08722 19-323): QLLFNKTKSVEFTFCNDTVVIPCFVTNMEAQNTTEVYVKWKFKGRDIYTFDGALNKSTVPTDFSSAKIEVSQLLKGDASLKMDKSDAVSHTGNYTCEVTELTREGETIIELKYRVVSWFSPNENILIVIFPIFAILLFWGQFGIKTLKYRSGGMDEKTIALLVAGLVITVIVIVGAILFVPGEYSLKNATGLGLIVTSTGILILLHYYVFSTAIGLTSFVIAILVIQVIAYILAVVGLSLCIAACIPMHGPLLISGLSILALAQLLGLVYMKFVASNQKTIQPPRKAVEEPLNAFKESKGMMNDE

T1 sequence (Q08722 19-139 limits assumed): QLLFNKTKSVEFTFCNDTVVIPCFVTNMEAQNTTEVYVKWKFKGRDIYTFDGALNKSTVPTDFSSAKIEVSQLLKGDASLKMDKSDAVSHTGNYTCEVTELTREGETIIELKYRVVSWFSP

B1: 小鼠抗人CD47单克隆抗体1H10 (antibody, V domains shown)
VH: EVQLQQSGAELVRSGASVTLSCTASGFKIKDYYMNWVKQRPEQGLEWIGWIGPENGDTENGPKFQDKATMTANTSSNTAFLQLSSLTPEDTAFYYCNAGGRGGFPYWGQGTQVTVST
VL: DILLTQTPLSLPVSLGDQASFSCRSSQDIVHINGKTYLEWYLQKPGQSPKLLIYRVSNRFSGVPDRFSGSGSGTDFTLKISRVEAEDLGVYYCFQGSHVPRTFGGGTKLEIK
notes: also called 本发明的抗体1H10; 本发明的单克隆抗体1H10
binding result [1]: binds | binding result [2]: binds
